Assay: soluble on expression in E. coli; label from the status in PepcDB or PDB records

Sequence	soluble on expression in E. coli
MSLDTNNALARFFDSSGYNANVSNPSAYQGQSANYYTGGSLFVRTPIVDAQLVSVTVPSISAGCSGIDMFMGGFSHVSSDQLVKVGKAIIHNAPPFIVNLALQTWAPQLKQNLDNLQAIADKYLNQSVNSCEAAQAAIGGLAAFAAPATKKHVCATLGTQNNAFSDWVQAQHECGAGGKAAGQLANAKNDPALKDITKTNHNVVWSAIMNNAFLSADKHLAQFMMSLSGTYVYDANGNPRYYPSLLTDNNNLVNVLLEGGKADIYQCRNTDPKACITITKPNNLSISQANGIQSQISKQLESILRHIATDQKLTDKQKSFLELTQTPVLKFFMDDLSANQTPDINSYSRMIAVELLNQYLTNMLSIASQSLANTNNSVEDIALITRDIDNAKRFTTGLADKAIETLNQRNQLIESQRKTAQRSQKDIGITTKPTQAYGNEGHHHHHH	not soluble
MNNFVKLGLTTGVVLSAIIPYGGVHAATEDLKVETKEDTFRTGNLTAPSQKSAENVVKDALKGKTEQALSSKQVNTESKVNYNVTQSRKSYDGTTLVRLQQTYEGRDVYGYQLTAHINDDGVLTSISGDSAQDLQQQEDLKQPIILSEEDAKKQLFKIYGDNLTFVEEPEIKQVVYVDENTNKATNAYQITFSASTPEYVSGTVLIDAFVGDLLKELVQKLGIQVDSSIVQSATANKSQDPSKLTGTGKDDLGMNRTFGITQRSDGTYTLADYSRGKGIETYTANYKDYNNYRRNVWGYLDDLVTSNSTNFTDPKAVSAHYLATKVYDFYKEKYSRNSFDNNGQKVISVVHGWNTNGKNIGNPKQWFNAFSNGAMLVYGDPIVRAFDVAGHEFTHAVTRNESGLEYAGEAGAINEALSDILGVAVEKYANNGKFNWTMGEQSGRIFRDMKNPSSISSRYPEDYRHYNNLPIDADHDYGGVHTNSSIINKVAYLIASGGNHNGVNVQGIGEDKMFDIFYYANTDELNMTSDFKELKEACIRVAMNLYGKDSLEVQAVQQAFKAAYI	not soluble
MAKFNVENEHVEVEIEKLYKFSPELVYEAWTKKDLLKQWFMTSARTNKEIEADVKEGGKYRIVDQQRNGKVNVIEGIYESLVMDEYVKMTIGMPGLSETQDVIEVEFFERETGGTQMLFYYRSLVEKERRFTNLEYKQKKKEYHDAMVHGFELMFDKMYHVIETSTQQ	soluble
MGHHHHHHSHMGITTNLISEVSKFYYALKYHAKFMSLGELGCYASHYSLWEKCIELNEAICILEDDITLKEDFKEGLDFLEKHIQELGYIRLMHLLYDASVKSEPLSHKNHEIQERVGIIKAYSEGVGTQGYVITPKIAKVFLKCSRKWVVPVDTIMDATFIHGVKNLVLQPFVIADDEQISTIARKEEPYSPKIALMRELHFKYLKYWQFV	not soluble
MGSDKIHHHHHHMTLSSSFAQLKDFKFKFYGQIRTDFYYNSRANEETVDGLFYMYPKDEVLDGNGEDLNATSNSNFYTLYSRLGLDVAGPKLGTAKTSAKVEVDFRGSGTSYSTIRLRHAYFNLDWGKSAVLVGQTWHPLFGDVSPQILNLSVGAPFQPFSRAPQIRYRFNNKHLQLTGALVWQSQYLSQGPAGKSQEYIKKSNIPEIYVGADYKNGGFLAGAGIEMISLKPRTQSSWEEKTFDPTTNSTISIPHTYKVDERITTLSYEAHVKYTNKNWFIGAKSVLGSNLTQASGLGGFGIKHIDNKTKEQEYTPIRFSSSWLNVVYGQKWKPGIFVGYAKNLGTSDELVSEKLYGTGTNLDKLVTAGAELTYNVPHWKFGVEYTLSSAWYGKLDKSDGKIIDTHSVSNNRIVAVAMFMF	not soluble
MKKSHYSVIIVGGGQAGLAISYLLKQESIDHVIFEKNQIGHAWRNQRWDSFCLVTPNWQCRLPGFPYAGGDDQGFMLKDEIVQYLEDYAASFQAPILEGVEVSKLSQRTDAFEVITSQGIYTADQVVVATGGYHTPKIAAIAKKLPPHIVQLHSVDYKNPETLPDRILLVGTGQSGCQIAEDLHLAGKTVHLATGSAPRSPRRYRGRDVVEWLELMGHYDLPIDEHPQKEMVRHKTNHYLTGRDGGREIDLRQFALEGMHLYGRLKDIDGNQILFADNLKENLDQADATAARIKQSIDEYIAKNQLDAPIEAPYQPVWEPTSIPLTLNIDEIDAVIWSTGFNFNYAWVDVPVFNSMGEPLHNRGVTNVAGLYFLGLPWLYTWGSGRFSGVARDAEYLAEKIRETLPANQINPCTVALEHHHHHH	not soluble
MSLKAIFWDMDGTMVDSEPQWGIATYELSEAMGRRLTPELRELTVGSSLPRTMRLCAEHAGITLSDADYERYRAGMFARVHELFDESLVPNPGVTELLTELKALEIPMLVTTNTERDLATRSVAAVGNEFFIGSIAGDEVPTAKPAPDMYLEAARRVGFDPSECLVFEDSYNGMLGAVTAGCRVIGLHPEEVQAPEGVVPLRSLHGKNSFEGVTAEMVTAWYHQIEPAGVAKEGHHHHHH	soluble
MFKRLMMVALLVIAPLSAATAADQTNPYKLMDEAAQKTFDRLKNEQPQIRANPDYLRTIVDQELLPYVQVKYAGALVLGQYYKSATPAQRDAYFAAFREYLKQAYGQALAMYHGQTYQIAPEQPLGDKTIVPIRVTIIDPNGRPPVRLDFQWRKNSQTGNWQAYDMIAEGVSMITTKQNEWGTLLRTKGIDGLTAQLKSISQQKITLEEKK	not soluble
MGSDKIHHHHHHMSNTNDLLNRINAKYSTMSKGHKLLATYITDNYDKAVFLTAAKMGETVGISESTVVRFATSLGYKGYPDFQKALEELVRNKLNSVQRMEVTYGRISQSQILETVLQSDRDKIKTTLEKIDADAFDLAVDTILQSRKIYIVGIRSCAPLASFLAFYMNLMFEDVCLLTTNSSSELFEQMVRIGKDDVIIGISFPRYSMRTLKALEFANNRSAKVITITDSIHSPMNLYSSCNLIADSDMASIVDSLVAPLSVINALIVALCMKKQNIVAKTLTELEDIWNEYQVYENDEIDYIDDSIKVHYAKLGDSQDE	not soluble
MKKVGKSTFKFENCPIISDCFTIVGKKEGEGPLGLFFDMVVEDEYAGQKSWELAEGKLLNIAISKLIQKSGFTPDEVDLILSGDLLNQLTSSHFAARDLNIPFIGLYGACSTFALSVGLACVFVDGGFAKNIIAATSSHFCSAEKQFRYPLELGCQRPPTAQWTVTGAASFLIKPEDGTQKPKITHFTVGKILDYGIKDSNNMGACMAPAAFDTITTHLEDTKRDFTYYDIIVTGDLGYVGRKLLEELFKKEGKTLSFELLDCGILMFDQKTQDTGAGASGCAASACIFGGYFYKLMLQKTFKRILIVPTGALLSSSTVQLGESIPVIAHALSIEIELEHHHHHH	not soluble
ANADNYKNVINRTGAPQYMKDYDYDDHQRFNPFFDLGAWHGHLLPDGPNTMGGFPGVALLTEEYINFMASNFDRLTVWQDGKKVDFTLEAYSIPGALVQKLTAKDVQVEMTLRFATPRTSLLETKITSNKPLDLVWDGELLEKLEAKEGKPLSDKTIAGEYPDYQRKISATRDGLKVTFGKVRATWDLLTSGESEYQVHKSLPVQTEINGNRFTSKAHINGSTTLYTTYSHLLTAQEVSKEQMQIRDILARPAFYLTASQQRWEEYLKKGLTNPDATPEQTRVAVKAIETLNGNWRSPGGAVKFNTVTPSVTGRWFSGNQTWPWDTWKQAFAMAHFNPDIAKENIRAVFSWQIQPGDSVRPQDVGFVPDLIAWNLSPERGGDGGNWNERNTKPSLAAWSVMEVYNVTQDKTWVAEMYPKLVAYHDWWLRNRDHNGNGVPEYGATRDKAHNTESGEMLFTVKKGDKEETQSGLNNYARVVEKGQYDSLEIPAQVAASWESGRDDAAVFGFIDKEQLDKYVANGGKRSDWTVKFAENRSQDGTLLGYSLLQESVDQASYMYSDNHYLAEMATILGKPEEAKRYRQLAQQLADYINTCMFDPTTQFYYDVRIEDKPLANGCAGKPIVERGKGPEGWSPLFNGAATQANADAVVKVMLDPKEFNTFVPLGTAALTNPAFGADIYWRGRVWVDQFWFGLKGMERYGYRDDALKLADTFFRHAKGLTADGPIQENYNPLTGAQQGAPNFSWSAAHLYMLYNDFFRKQ	soluble
MWQKSALTTVSISLPQQAVYSGMRYEVNISAAKCDGTGVTFGTINNCTITLSLPAGASIITRHFSADL	not soluble
MKSIVGVYETPQETIAAIEGLLTKGYDSDDISVVTSRRDTDYLESRTGTEVNQAIDAHQDESESFFDKLKDYFTMDDTATHSKALSDLDIKTDEIDKYQEDLDDGKLLVAVDTDADVIAPIDNGNALSGGFSSTNELDYTTKEEKTMPLREEQLKVDKEDVQTGEVEIGKEVKTEKRDMDIPVRHDEIYVERRPVDENKTDAAPVNDSEEIRVPIVEEKLEVTKKPVVTDEVVVGKRTVEENEHISETVKKEEPRLNKEGKVDGLDDDPLNNQMKIIDRQPKNLKSLEHHHHHH	soluble
MSLAVLDSGGGSALLKMGRQCEVGSQAYDSSTVSSNLQKAETNGPVGLAGTAEQEQQYDVHGNVISAAVYQKFHVYGPEDMVFDGDAGGLTIPGAGAFWGTLFTSDLQRLYKDTVSFQYNALGTYLNINFFDSSGGFLGHIQAGAVSAVVGVGGGSGSWHNWEVAEGHHHHHH	soluble
MGSDKIHHHHHHLRASSSIRVGAERAHLAIGAASKRMADLEASIGVQLFERHARGVALTAAGEALERHTQRILNDMDRMTAEMSDYAAGVVGVVRLWANTSSVTQFLPTDIAAFSVVHPDIRIELEEQDSEQVALAVVDGAADFGIMADRMPTLGLQAMLYRKDHLFLVVPDGHPLTQRESVSFVDALEFDFVSLARNTSLAKRLQAATAFSGGQIKLRIQVRSFDAMCLMVAAGPGIAILPDAAVGPHLRSMDLCRIPLSENWTRRELFICARDLNALPRPASLLVNHLIGATPDAVAVR	not soluble
DRYCLTAPNYRLKSLQKKASTSAGRITVPRLSVGSVTSRPSTPTLGTPTPQTMSVSTKVGTPMSLTGQRFTVQMPTSQSPAVKASIPATSAVQNVLINPSLIGSKNILITTNMMSSQNTANESSNALKRKR	soluble
MGSDKIHHHHHHMAVGTTKMAQMLDPEVLADMIDAEVGKAIRFAPLAEVDTTLEGQPGTTLTVPKWDYIGDAEDVAEGEAIPMTQLGFKKTTMTIKKAGKGVEITDEAILSGYGDPVGQAAKQIVEAIDHKVDADVLDALSKSTQTVEATATVDGVSKALDIFNDEDDAETVIVMNPADASTLRLDAAKEWLGATEVGANRVVSGVYGEVLGVQIVRSRKCPKGTAYMVRKGALRIMLKRNTMVETDRDITKAINQIVANKHYGVYLYKAEKAVKITLKDAAKK	not soluble
MATMSRRWNYFTPHYNDEGSIDVLDGKPPYIDLFDPLKQPLFQHLRSMHTEFSTTTADVNTTWEDASSTSSSNKGATIWFNEDAIDKSSRHEIGQSTVTHESEDDRFSFFNAVCTRLNSLQETKNSSETEEHAESPRKEKSSTPYGTDGFAPPPRSTQTNTLKVSNLPKRFESLYKKKRQQVATSDSSGFGSNASDFWSFERYGKSNQGTLERPNRLFTGTNNGFSTLQPKRRGSEAPKMTVELRYENDVPMVAKISANHAQSVTLRYFRHLFGLHYTDNCR	not soluble
YQPNYFLSIPITNKKITAGIKVLQNSILRQDNRLTKAMVGDGSFHITLLVMQLLNEDEVNIGTDALLELKPFVEEILEGKHLTLPFHGIGTFQGQVGFVKLADGDHVSALLEIAETAKRTFQEKGILAGESRTFKPHLTFMKLSKAPMLWKKGVRKIEPGLYEQFIDHRFGEEILYQIDLCSMLKKKQSNGYYHCESSIVIGEKD	soluble

Source: the DeepSol protein solubility set
